Data: US20130273076A1 (Harvard, published 2013)

Experiments:
[1] = target: EphA2 (expressed in HEK293T cells)
[2] = target: Flag-EphB2-Acyto (cytoplasmic truncated version of EphB2)
[3] = target: Flag-EphB2-kinase dead (KD)
[4] = target: endogenous RhoA of mouse brain (mouse, UniProt Q9QUI0 1-190); assay: cell-based or functional assay
endogenous RhoA of mouse brain, sequence (Q9QUI0 1-190 limits assumed): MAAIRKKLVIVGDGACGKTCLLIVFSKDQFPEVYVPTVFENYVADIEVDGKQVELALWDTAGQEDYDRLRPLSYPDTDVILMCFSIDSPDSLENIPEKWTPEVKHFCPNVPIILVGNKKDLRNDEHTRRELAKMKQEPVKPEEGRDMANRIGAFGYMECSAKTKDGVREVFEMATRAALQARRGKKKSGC

EphA2 (expressed in HEK293T cells), sequence (P29317 whole entry, the tested form may be a part): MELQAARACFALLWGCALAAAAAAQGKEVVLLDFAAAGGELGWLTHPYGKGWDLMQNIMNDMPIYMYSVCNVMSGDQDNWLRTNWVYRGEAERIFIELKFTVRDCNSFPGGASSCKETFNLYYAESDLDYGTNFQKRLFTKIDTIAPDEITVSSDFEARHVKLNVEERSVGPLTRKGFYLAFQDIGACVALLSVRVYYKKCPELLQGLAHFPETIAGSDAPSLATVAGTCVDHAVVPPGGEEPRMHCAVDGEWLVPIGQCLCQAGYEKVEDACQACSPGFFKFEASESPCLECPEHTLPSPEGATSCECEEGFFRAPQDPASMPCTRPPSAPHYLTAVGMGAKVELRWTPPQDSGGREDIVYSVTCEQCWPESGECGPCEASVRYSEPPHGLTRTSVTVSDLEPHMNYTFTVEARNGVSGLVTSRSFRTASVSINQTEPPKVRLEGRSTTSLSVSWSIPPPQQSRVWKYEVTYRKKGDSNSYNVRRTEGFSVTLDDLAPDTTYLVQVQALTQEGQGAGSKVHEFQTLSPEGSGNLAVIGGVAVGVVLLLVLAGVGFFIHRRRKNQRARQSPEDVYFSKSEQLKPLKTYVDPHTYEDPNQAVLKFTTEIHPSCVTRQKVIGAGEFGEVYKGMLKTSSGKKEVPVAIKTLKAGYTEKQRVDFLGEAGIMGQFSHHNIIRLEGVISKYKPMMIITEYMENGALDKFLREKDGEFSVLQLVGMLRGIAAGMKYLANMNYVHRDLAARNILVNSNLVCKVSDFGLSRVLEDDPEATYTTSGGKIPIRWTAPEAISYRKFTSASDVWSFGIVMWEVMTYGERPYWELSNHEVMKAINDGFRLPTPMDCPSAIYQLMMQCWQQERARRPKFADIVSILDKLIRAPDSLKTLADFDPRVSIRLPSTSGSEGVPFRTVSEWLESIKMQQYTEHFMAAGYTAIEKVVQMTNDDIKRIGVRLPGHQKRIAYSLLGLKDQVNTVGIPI

Binder	phosphorylation of Ephexin5 at Y361 (anti-pY361 immunoblot) [1]	phosphorylation of Ephexin5 at Y361 (anti-pY361 immunoblot) (Flag-EphA4)	phosphorylation of Ephexin5 at Y361 (anti-pY361 immunoblot) (Flag-EphB2)	tyrosine phosphorylation of Ephexin5 (anti-phosphotyrosine 4G10 immunoblot) (Flag-EphB2)	phosphorylation of Ephexin5 at Y361 (anti-pY361 immunoblot) [2]	phosphorylation of Ephexin5 at Y361 (anti-pY361 immunoblot) [3]	anti-RhoA signal from RBD pulldown assays, Ephexin5-/- against wild type brain lysates [4]
endogenous mouse Ephexin5 (neurons, brain lysates) (enzyme, UniProt Q5FWH6 1-849, looked up) MSAQSLPAATPPTLKPPRIIRPRPPSRHRAPHSPGPLHNGSSPKALPQISNDASASVCTSIFWEPPTASLKPPALLPPSVSRTSLDSQTSPDSPSSTPSPSPVSRRSISPEPAPCSPVPPPKPSGSSRTPLPSGPTPLQDGSASAPGTVRRLAGKFEWGAEGKAQSSDSLERCSQGSTEVNGEKETPEAALSGNGSQENGTPDAALACPPCCPCVCHVAKPGLELRWVPVGSSEDILRIPCRASPLRASRSRINPPVISHPPVVLTSYRSTAERKLLPPLKPPKPTKVRQDISTSEELPQPDLKLPSEDGIQTATKAWEGDRPEGAPLNAPPVALEGREEEGLDGLKGLQWELPLQDEPLYQTYRAAVLSEELWGVGEDGGPSPANPGEAPTFSRLPGPRNTLWQELPAVRGSGLLESLSPQERRMQESLFEVVTSEASYLRSLRLLTDTFVLSQALRDTLTPRDHHTLFSNVQRVQSVSERFLGTLLSRVRSSPHITDLCDVVHAHAVGPFFVYVDYVRNQQYQEETYSRLMDTNVRFSAELRRLQSLPKCERLPLPSFLLLPFQRITRLRMLLQNILSQTEEGSSRQENAQKALGAVSKIIERCSAEVGRMKQTEELIRLTQRLRFHKVKALPLVSWSRRLELQGELTELGCRRGGVLFTSRPRFTPLCLLLFSDLLLITQPKSGQRLQVLDYAHRSLVQAQQVPDPSGPPTFRLSLLSNHQGRPTHRLLQAASLSDMQRWLGAFPTPGPLPCSPDTIYEDCECSQELCSEPSTPSKTEGQSLESKAPRKHLHKNPEGWLKGLPGAFPAQLVCEVTGEHERRKHLRQHQKLLEAVGPSSGTPDTPQP	when EphA4 or EphA2 were expressed in HEK293T cells they detected little to no phosphorylation of Ephexin5 at Y361	when EphA4 or EphA2 were expressed in HEK293T cells they detected little to no phosphorylation of Ephexin5 at Y361	when wild type EphB2, but not a kinase dead or cytoplasmic truncated version of EphB2, was expressed in HEK293T cells together with Ephexin5, Ephexin5 become tyrosine phosphorylated at Y361	in the presence of EphB2, Ephexin5-WT, but not Ephexin5-Y361F, become tyrosine phosphorylated	when wild type EphB2, but not a kinase dead or cytoplasmic truncated version of EphB2, was expressed in HEK293T cells together with Ephexin5, Ephexin5 become tyrosine phosphorylated at Y361	when wild type EphB2, but not a kinase dead or cytoplasmic truncated version of EphB2, was expressed in HEK293T cells together with Ephexin5, Ephexin5 become tyrosine phosphorylated at Y361	4 fold
Ephexin5-Y361F-Myc (protein) MSAQSLPAATPPTLKPPRIIRPRPPSRHRAPHSPGPLHNGSSPKALPQISNDASASVCTSIFWEPPTASLKPPALLPPSVSRTSLDSQTSPDSPSSTPSPSPVSRRSISPEPAPCSPVPPPKPSGSSRTPLPSGPTPLQDGSASAPGTVRRLAGKFEWGAEGKAQSSDSLERCSQGSTEVNGEKETPEAALSGNGSQENGTPDAALACPPCCPCVCHVAKPGLELRWVPVGSSEDILRIPCRASPLRASRSRINPPVISHPPVVLTSYRSTAERKLLPPLKPPKPTKVRQDISTSEELPQPDLKLPSEDGIQTATKAWEGDRPEGAPLNAPPVALEGREEEGLDGLKGLQWELPLQDEPLFQTYRAAVLSEELWGVGEDGGPSPANPGEAPTFSRLPGPRNTLWQELPAVRGSGLLESLSPQERRMQESLFEVVTSEASYLRSLRLLTDTFVLSQALRDTLTPRDHHTLFSNVQRVQSVSERFLGTLLSRVRSSPHITDLCDVVHAHAVGPFFVYVDYVRNQQYQEETYSRLMDTNVRFSAELRRLQSLPKCERLPLPSFLLLPFQRITRLRMLLQNILSQTEEGSSRQENAQKALGAVSKIIERCSAEVGRMKQTEELIRLTQRLRFHKVKALPLVSWSRRLELQGELTELGCRRGGVLFTSRPRFTPLCLLLFSDLLLITQPKSGQRLQVLDYAHRSLVQAQQVPDPSGPPTFRLSLLSNHQGRPTHRLLQAASLSDMQRWLGAFPTPGPLPCSPDTIYEDCECSQELCSEPSTPSKTEGQSLESKAPRKHLHKNPEGWLKGLPGAFPAQLVCEVTGEHERRKHLRQHQKLLEAVGPSSGTPDTPQP	–	–	–	in the presence of EphB2, Ephexin5-WT, but not Ephexin5-Y361F, become tyrosine phosphorylated	–	–	–
